Test results published in patent US20260266833A1 (AXOIYA, published 2026).
Like-named read-outs stand apart in the source and are kept apart here. Non-standard residues stand in square brackets, D forms with d. No end group written: not given here. *: point of attachment. Biotin = O=C1N[C@H]2[C@H](CS[C@H]2CCCCC(=O)*)N1; Arg(Me) = CNC(=N)NCCC[C@H](N)C(=O)O; Ahx = NCCCCCC(=O)O

B4: H3K27me3 peptide (peptide)
peptide: KQLATKAARKSAPATGGVK
modifications: Kme3 (trimethyl-lysine) at the 10th residue (KQLATKAARKme3SAPATGGVK); N-terminus biotin + aminohexanoic acid linker, or FITC at the N-terminus for fluorescence polarization
notes: Synthetic peptide (GenScript); One entry is used for the biotinylated and the FITC-labelled form

Columns and labels:
H3K9me2 = biological target: T1, H3K9me2 (Kme2 at peptide residue 9 (histone H3 K9); N-terminal biotin and aminohexanoic acid linker); assay: luciferase-fusion assay on immobilized peptide
T1 construct: also called H3K9Me2 peptide
T1 peptide: ARTKQTARKSTGGKAPR
Description: (§1) For luciferase-based assays, 384-well white plates (PerkinElmer) were coated for 16 h at 4° C. with 4 μg/ml streptavidin (New England Biolabs, N7021S) in TBS pH 8.5 (50 mM Tris-HCl pH 8.5, 150 mM NaCl). Each well was blocked with 60 μl/well of TBS pH 8.5 containing 0.5% BSA (TB buffer) and incubated at 25° C. for 1 h. Plates were washed four times with 90 μl/well of PBS pH 7.4, 0.05% Tween-20 (PT buffer) and incubated with 25 μl/well of biotinylated histone peptides at 5 μg/ml in TB buffer pH 8.5 for 30 min at 25° C. Plates were washed and incubated with Cbx chromodomain-luciferase fusions diluted to 0.1 nM for Cbx. VD or 100 nM for Cbx.wt in TB buffer, 0.05% Tween-20, 1 mM DTT, 5% glycerol (TBT buffer). Plates were incubated for 1 h at 25° C. with gentle shaking, washed six times and luminescence intensity was measured with a Biotek Synergy 5 plate reader (Biotek) using the ONE-Glo™ EX luciferase assay system reagent (Promega). Following background subtraction of the luminescence signal derived from wells coated with streptavidin, the luminescence intensity was normalized to wells with immobilized H3K9me3 peptide.
(§2) To enhance detection sensitivity, each chromodomain was expressed as a fusion to the N-terminus of an engineered firefly luciferase and binding was measured by luminescence intensity.

[1] = biological target: T2, H3K9 peptide (non-methylated) (also: N-terminal FITC, or biotin + Ahx); assay: luciferase-fusion assay on immobilized peptide
T2 construct: also called unmethylated H3K9 peptide
T2 peptide: ARTKQTARKSTGGKAPR
Description: as §1, §2

H4K20me3 = biological target: T3, H4K20me3 (Kme3 at peptide residue 8 (histone H4 K20); N-terminal biotin and aminohexanoic acid linker); assay: luciferase-fusion assay on immobilized peptide
T3 construct: also called H4K20Me3 peptide
Description: as §1, §2

H3K27me1 = biological target: T4, H3K27me1 (Kme1 at peptide residue 10 (histone H3 K27); N-terminal biotin and aminohexanoic acid linker); assay: luciferase-fusion assay on immobilized peptide
T4 construct: also called H3K27Me1 peptide
T4 peptide: KQLATKAARKSAPATGGVK
Description: as §1, §2

H3K9Ac = biological target: T5, H3K9Ac (Kac at peptide residue 9 (histone H3 K9); N-terminal biotin and aminohexanoic acid linker); assay: luciferase-fusion assay on immobilized peptide
T5 construct: also called H3K9Ac peptide
T5 peptide: ARTKQTARKSTGGKAPR
Description: as §1, §2

H3K14Ac = biological target: T6, H3K14Ac; assay: luciferase-fusion assay on immobilized peptide
T6 construct: also called H3K14Ac peptide
T6 peptide: {Biotin-Ahx}-TARKSTGGK(Ac)APRKQLAT
Description: as §1, §2

H3R17me1 = biological target: T7, H3R17me1; assay: luciferase-fusion assay on immobilized peptide
T7 construct: also called H3R17me1 peptide
T7 peptide: {Biotin-Ahx}-KSTGGKAP[Arg(Me)]KQLATKAA
Description: as §1, §2

H3K14 = biological target: T8, H3K14; assay: luciferase-fusion assay on immobilized peptide
T8 construct: also called H3K14 peptide (non-modified)
T8 peptide: {Biotin-Ahx}-TARKSTGGKAPRKQLAT
Description: as §1, §2

[2] = biological target: T9, H3K27 peptide (non-methylated) (also: N-terminal biotin + Ahx, or FITC at N-terminus); assay: luciferase-fusion assay on immobilized peptide
T9 construct: also called unmethylated H3K27 peptide
T9 peptide: KQLATKAARKSAPATGGVK
Description: as §1, §2

H3K27me2 = biological target: T10, H3K27me2 (Kme2 at peptide residue 10 (histone H3 K27); N-terminal biotin and aminohexanoic acid linker); assay: luciferase-fusion assay on immobilized peptide
T10 construct: also called H3K27Me2 peptide
T10 peptide: KQLATKAARKSAPATGGVK
Description: as §1, §2

H3R17 = biological target: T11, H3R17; assay: luciferase-fusion assay on immobilized peptide
T11 construct: also called H3R17 peptide (non-modified)
T11 peptide: {Biotin-Ahx}-KSTGGKAPRKQLATKAA
Description: as §1, §2

H3K9me1 = biological target: T12, H3K9me1 (Kme1 at peptide residue 9 (histone H3 K9); N-terminal biotin and aminohexanoic acid linker); assay: luciferase-fusion assay on immobilized peptide
T12 construct: also called H3K9Me1 peptide
T12 peptide: ARTKQTARKSTGGKAPR
Description: as §1, §2

H4K20 peptide = H4K20 peptide (N-terminus biotin + aminohexanoic acid linker); assay: luciferase-fusion assay on immobilized peptide
Description: as §1, §2

H3K27me3 peptide [3] = biological target: B4; assay: luciferase-fusion assay on immobilized peptide
Description: as §1, §2

H3K27me3 peptide [4] = biological target: B4; assay: fluorescence polarization, FITC-peptide 0.5 nM
H3K27me3 peptide [5] = biological target: B4; assay: ITC, peptide titrated into the chromodomain, 25 C
[6] = biological target: T13, Cbx6.wt chromodomain (tags removed) (human, UniProt O95503 6-69); assay: fluorescence polarization
T13 construct: also called Cbx6-chromo
T13 sequence: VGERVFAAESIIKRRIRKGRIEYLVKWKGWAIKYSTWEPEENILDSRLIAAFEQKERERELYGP

[7] = biological target: T14, Cbx1.wt chromodomain (tags removed) (human, UniProt P83916 17-79); assay: fluorescence polarization
T14 construct: also called Cbx1-chromo
T14 sequence (P83916 17-79 limits assumed): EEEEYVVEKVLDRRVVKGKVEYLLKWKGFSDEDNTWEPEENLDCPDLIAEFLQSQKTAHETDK

[8] = biological target: Cbx3.wt chromodomain (tags removed) (human, UniProt Q13185 23-81); assay: fluorescence polarization
Sequence of Cbx3.wt chromodomain (tags removed) (Q13185 23-81 limits assumed): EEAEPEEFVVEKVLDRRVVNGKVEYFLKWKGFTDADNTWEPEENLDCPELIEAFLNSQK

[9] = biological target: Cbx5.wt chromodomain (tags removed) (human, UniProt P45973 17-78); assay: fluorescence polarization
Sequence of Cbx5.wt chromodomain (tags removed) (P45973 17-78 limits assumed): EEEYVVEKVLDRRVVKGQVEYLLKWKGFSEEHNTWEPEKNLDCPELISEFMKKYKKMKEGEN

[10] = biological target: T15, Cbx7.wt chromodomain (tags removed) (human, UniProt O95931 4-75); assay: fluorescence polarization, FITC-peptide 0.5 nM
T15 construct: also called Cbx7-chromo
T15 sequence: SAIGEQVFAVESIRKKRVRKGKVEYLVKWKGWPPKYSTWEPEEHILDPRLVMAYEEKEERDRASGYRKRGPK

[11] = biological target: T16, Cbx2.wt chromodomain (tags removed) (human, UniProt Q14781 8-70); assay: fluorescence polarization, FITC-peptide 0.5 nM
T16 sequence: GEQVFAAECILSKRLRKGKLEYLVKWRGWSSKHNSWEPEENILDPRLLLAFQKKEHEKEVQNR

[12] = biological target: T15, Cbx7.wt chromodomain (tags removed); assay: fluorescence polarization, FITC-peptide 0.5 nM; remark: listed apart in the source
H3K27me3 peptide [13] = biological target: B4; assay: fluorescence polarization

B1: Cbx8.wt chromodomain-luciferase fusion (other)
chain: MSYYHHHHHHGSDYKDDDDKSSGENLYFQGSGGSGERVFAAEALLKRRIRKGRMEYLVKWKGWSQKYSTWEPEENILDARLLAAFEEREREMELYGP
notes: not shown: engineered YY5 firefly luciferase from Photinus pyralis fused to the C-terminus
B1: no binding (tested: 100 nM) (H3K9me2); no binding (tested: 100 nM) [1]; no binding (tested: 100 nM) (H4K20me3). B1: no binding (tested: 100 nM) (H3K27me1); no binding (tested: 100 nM) (H3K9Ac); no binding (tested: 100 nM) (H3K14Ac). B1: no binding (tested: 100 nM) (H3R17me1); no binding (tested: 100 nM) (H3K14); no binding (tested: 100 nM) [2]. B1: no binding (tested: 100 nM) (H3K27me2); no binding (tested: 100 nM) (H3R17); no binding (tested: 100 nM) (H3K9me1). B1: no binding (tested: 100 nM) (H4K20 peptide).

B2: Cbx6.VD chromodomain-luciferase fusion (designed binder)
chain: MSYYHHHHHHGSDYKDDDDKSSGENLYFQGSGGSVGDRVFAAESIIKRRIRKGRIEYLVKWEGWAIKYSTWEPEENILDSRLIAAFEQKERERELYGP
notes: as for B1
B2: no binding (tested: 0.1 nM) (H3K27me1); no binding (tested: 0.1 nM) (H3R17me1); no binding (tested: 0.1 nM) (H3K14). B2: no binding (tested: 0.1 nM) [2]; no binding (tested: 0.1 nM) (H3K27me2); no binding (tested: 0.1 nM) (H3R17). B2: no binding (tested: 0.1 nM) (H3K27me3 peptide [3]).

B3: Cbx7.V1 chromodomain (tags removed) (designed binder)
chain: SAIGDDIFAVESIRKKRVRKGKVEYLVKWEGWPLEYSTWEPEEHILDPRLVMAYEEKEERDRASGYRKRGPK
notes: ITC and FP: His6 and Flag tags removed with TEV protease
A Kd (H3K27me3 peptide [4]) of 4 µM and a Kd (H3K27me3 peptide [5]) of 7.8 µM were found for B3 in this work.

B4: no binding [6]; no binding [7]; no binding [8]. The binding result [9] was “no binding”, the Kd [10] was 110 µM and the Kd [11] was 100 µM. For the same binder, the Kd [12] was 110 µM.

B5: Cbx6.VD chromodomain (tags removed) (designed binder)
chain: VGDRVFAAESIIKRRIRKGRIEYLVKWEGWAIKYSTWEPEENILDSRLIAAFEQKERERELYGP
B5: no binding (H3K27me3 peptide [13]).
